Reference: the nanobody polyreactivity screen of Harvey et al. (2022)

Experiment: yeast display, Sf9 membrane polyspecificity reagent, FACS + sequencing; frameworks hold sequencing errors
In short: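 Galactose induction of a Saccharomyces cerevisiae BJ5465 synthetic nanobody display library ran 36–48 hours. The cells were then stained for 1 hour at 4 °C with 10% biotinylated, detergent-solubilized Sf9 membrane reagent, pulled down on streptavidin microbeads and FACS-sorted into low and high (top ~1%) gates on expression and reagent-binding fluorescence. Labels for polyreactivity follow the gate of origin.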

Row | Sequence | polyreactivity (PSR sort gate)
1 | QVQLVESGGGLVQAGGSLRLSCAASGSTFWYYAMGWYRQAPGKEREFVAAITTSAGRTYYADSVKGRFTISRDNAKNTVYLQMNSLKPEDTAVYYCAAEPRQYWEYNYWGQGTQVTVSS | high polyreactivity
2 | QVQLVESGGGLVQAGGSLRLSCAASGSTLAVYAKGWSRQAPGKERELVAVIDRGGSTYYADSVKGRFTISRDNAKNTVYLQLNCLKPEDTAVYFCNARRVKGYGYWGQGTQVTVSS | high polyreactivity
3 | QVQLVESAGGLVQAGGILRLSCAASGFTFYFYAMGWYRQSPGKERELVAAISRSGSRTYYADSVKGRFTISRDNAKNTVYLQMNSLKPEDTAVYYCARVRPRGLYFVLHYDYWGQGTQVTVSS | high polyreactivity
4 | QVQLVESGGGLVQAGGSLRLSCAASGRIFAYYAMGWYRQAPGKERELVAAITTNGGGTYYADSVKGRFTISRDNAKNTVYLQMNSLKPEDTAVYYCNAVKQRSSIFDYWGQGTQVTVSS | low polyreactivity
5 | QVQLVESGGGLVQAGGSLRLSCAASGRTFYIYAMGWYRQAPGKERELVAAISGSGGSTYYADSVKGRFTISRDNAKNTVYFQMNSLKPEDTAVYYCATKLRRSRYVRYDYWGQGTQVTVSS | high polyreactivity
6 | QVQLVESGGGLVQAGGSLRLSCAASGRILWFYAMGWYRQAPGKERELVAAISWNGGSTYYADSVKGRFTISRDNAKNTVYLQMNSLKPEDTAVYYCAARPFHIHLSLEYNYWGQGTQVTVSS | low polyreactivity
7 | QVQLVESGGGLVQAGGTLPLSCAASGYTISRNAKGWYRQAPGKARELDAAISRGGRTNYADSVKGRFTISRDNAKNSVYLHLNSLKPEDTAVYYCAANSTTGLRSPRGAGGHDYWGQGTQVTVSS | high polyreactivity
8 | QVQLVESGGGLVQAGGSLRLSCAASGRTFYLYTMGWYRQAPGKERELVAAISRGGRTYADSVKGRFTISRDNAKNTVYLQMNSLKPEDTAVYYCAAESVYQGWSYQHGKGDYWGQGTQVTVSS | low polyreactivity
9 | QVQLVESGGGLVQAGGSLRLRCAASGYTFRGNAMAWYSQAPGKERDLVAGISQTGGNTYYADSVKGRFTISRDNAKNTVYLQMNSLKPEDTAVYYCATTRRPYVRGYPHYYWGQGTEVTVSS | high polyreactivity
10 | QVQLLESGGCLVQAGGSLRLSCAASGSTFWHNAMGWYRQAPGKERELVAAISSGSSTYYADSVKGRFTISRDNAKNTVYLQMNSLKPEDTAVYYCAKELYLGYRYWGYYWGQGTQVTVSS | high polyreactivity
11 | QVQLVESGGGLVQAGGSLRLSCAASGSIFDHYAMGWYRQAPGKERELVAAITAICDSTYYADSVKGRFTISRDNAKNTVYLEKNSLKAEDTAVYYCAVTYGGSDGGDYWGQGTQGTVSS | low polyreactivity
12 | QVQLVESGGGLVQAGGSLRLSCAASGSTFSAYTMGWYRQAPGKERELVARITNGGSTYYAESVKGRFTISRDNAKNTVYLQMNSLKPEDTAVYYCAAQLGWWGSGYWGQGTQVTLSS | high polyreactivity
13 | QGQHVESGGGLVQAGGSLRLSCAASGRIFVPYAMGWYRQAPGKERELVAAITWRGGSPYYADSVKGRFTLSRDNAKNTVYLQMNSLKPVDTAVYYCNAAEASPWFWFSHLQVGMDYWGQGTQVTVSW | low polyreactivity
14 | QVQLVESGGGLVQAGGSLRLSCAASGFTFKYYAMGWYRQAPGKERELVASISWDGTRTYYADSVKGRFTISRDNAKNTVYLQMNSLKPEDTAVYDGAAVFLDYRTYSYGYWGQGTQVTVSS | high polyreactivity
15 | QVQLVESGGGLVQAGGSLRLSCAASGSTFGYYAMGWYRQAPGKERELVAAISLGGGSTYYADSVKGRFTISRDNAKNTVYLQMNSLKPEDTEVYYCAARPYVRVKWKFNYWGQGTQVTVSS | low polyreactivity
16 | QVQLVESGGGLVQAGGSLRLSCAASGNIFSYYAMGWYRQAPGKERELVAAIYTGGSTYYADSVKGRFTISRDNAKNTVYLQMNSLKPEDTAVYYCAARGLKLRQDYDYWGQGTQVTVSS | low polyreactivity
17 | QVQLVESGGGLVQAGGSLRLSCAASGITFDTYAMGWYRQAPGKERELVAAISKSGGSPYYADSVKARFTISRDNAKNTVYLQMNSLKPEDTAVNYCNARYRHSGRYWDWYYYWGQGTQVTVSS | high polyreactivity
18 | QVQLVESGGGLVQAGGSLRLSCAASGRSFYGYAMGWYRQAPGKERELVARISGGGRTYYADSVKGRFTISRDNAKNTVYLQMNSLNPEDTAVYYCAAVYRSTWYGFTGSVGTFDYWGQGTQVTVSS | high polyreactivity
19 | QVHLVESGGGLVQAGGSLRLSCAASGSTNYYAMGRYRQAPGKEREFVSAISRDASSTYYADSVKGRFTISRDNAKNTVYLQMNSLKPEDTAVYYCAARIIRFSTSADKLVTSRYYYWGQGTQVTVSS | high polyreactivity
20 | QVQLVESGGGLVQAGGSLRLSCAASGFTFYSYAMGWYRQSPGKERELVAAISWSGTRTYYADSVKGRFTISRDTAKNTVYLQMNSLKPEDTAVYYCAARGYRYGYGYWGQGTQVTVSS | high polyreactivity
21 | QVQLVDSGGGLVQAGGSLRLSCAASGYILGRYAMGWYRQAPGKERELVAAISSSGGSTYYADSVKGRFTISRDNGKNSVYLQINSLKPEDTAFYYWNVPRFYGSYNYWGQGTQVTVSS | high polyreactivity
22 | QVQLVESGGGIVQEGGSLSLSCAASGRIFFDYAMGWYRQAPGKERELVADIDWSGGITYYADSVKGRYTISRDNAKNTVYLQMNSLNPEDTAVYYCAVEFDELYPTTAYGEFEYWGQVTQVTVSS | high polyreactivity

Row | Sequence | polyreactivity (PSR sort gate)
23 | QVQLVESGGGLVQAGGSLRLSCAASGGTFYAYAMGWYRQAPGKERELVAAITNSGGSTYYADSVKGRFTISRDNAKNTVYLQMNSLKPEDTAVYYCARRRSYRDNYWGQGTQVTVSS | high polyreactivity
24 | QVQLVESGGGLVQAGGSLRLSCAASGSIFNGYDMGWYRQAPGKERELVAAISLSGDSTYYADSVKGRFTISRDNAKNTVYLQMNSLKPEDTAVYYCAAADYFRSYWGQGTQVTVSS | low polyreactivity
25 | QVQLVESGGGLVQAGGSLRLSCADSGRIFWTNAMVWYRQAPGKERELVAAISYNGASTFYADSVKGRFTISRDNAKNTVSLQMNSLKPEDTAVYYCNAYSSRYRYNYWGQGTQVTVSS | high polyreactivity
26 | QVQLVESGGGLVQAGGSLRLSCAASGYTVTSNAMGWYRQAPGKERELVAAITNVGSTNYADSVKGRFTISRDNAKNTVYLQMNSLKPEDTAVYYCAADWDAVYLQTADYDYWGQGSQVTVSS | low polyreactivity
27 | QVQLVESGGGLVQAGGSLRLSCAASGFTFRFYVMGWYRQAPGKERELVAAISSGGGSTYYADSVKGRFTISRDNAKNTVYLQMNSLKPEDTAVYYCNALKVSFLTITKYEYWGQGTQVTVSS | high polyreactivity
28 | QVQLVESGGGLVQAGGSLRLSCAASGSTFQRYAMGWSRQAPGKERELVAAIDTVGSTNYADSVKGRFTISRDNAKNTVYLQMNSLKPEDTAVYYCAVVTPYWSFYEQVIPSNYWGQGTQVTVSS | low polyreactivity
29 | QVQLVESGGGLVQAGGSLRLSCAASGSTFPYYTMGWYRQAPGKERELVAAICGRGTSTYYADSVKGRFTISRDNAKNTVYLQMISLKPEDTAVYYCAARRADVQPYSPVYAYGAYDYWGQGTQVTVSS | high polyreactivity
30 | QVQLVESGGGLVQAGGSLRLSCAASGSTFPYYVMGWYRQAPGKERELVATITNSGGSTYYADSVKGRFTISRDNAKNTVYLQMNSLKPEDTAVYYCAAVYWYGLYHRYYYWGQGTQVTVSS | low polyreactivity
31 | QVQLVESGGGLVKAGGSLRLSCAASGRICSSYAMGWYRQAPGKERELVAAISRGGGRTYYADSVKGRFTNSRDNAKNTVYLQMNSLKPEDTAGYYCAAGRRYASEMDYWGLGTQVTVSS | high polyreactivity
32 | QVQLVESGGCLVQAGGSLRLSCAASGRTFLANAMGWYRQAPGKERELVAAITWSGGRTNYADSVKGRFTISRDNAKNTVYLQMNSLKPEDTAVYYCAADIFYEQVVGGTDVGYHDFDYWGQGTQVTVSS | low polyreactivity
33 | QVQLVESGGGLVQAGGSLRLSCAASGITLQFYAIGWYRQAPGKERELVAAISISGGRTYYADSVKGRFTISRDNAKNTVYLQMNSLKPEDTAVYYCAAYLQRAYRYGYWGQGTQVTVSS | high polyreactivity
34 | HVQLVESGGGLVQAGGSLRLSCAASGYTFVPYAMGWYRQAPGKERELVAAISSSGGDTYYADSVKGRFTISRDNAKNTVYLQMNSLKPEDTAVYYCNTGVYVWQYWYYGFDYWGQGTQVTVSS | low polyreactivity
35 | QVQLVESGGGLVQAGGSLRLSCAASGRIFIPNTMGWYIQAPGKERELVAAITWSGSSTYYADSVKGRFTISRDNAKNTVYLQMNSLKPEDTAVYYCAAYPSCYVVVSKGDYWGQGTQVTVSS | high polyreactivity
36 | QVQLVESGGGLVQAGGSLRLTCAASRLTFDDNAMGWYRQAPGKERELVAAISYNGGSTYYADSVKGRFTISRDNAKNTVYLQMNSLKPEDTAVYYCAADISVGRYGDMDYWGQGTQVTVSS | low polyreactivity
37 | QVQLVESGGGLVQAGGILRLSCAASGSTFTDSDMGWYRQAPGKERELVAAITSGGSTNYADSVKGRFTISLDNAKYTVYLPMNSLKPEDSAVYYCAAADADRKYDYWGQGTQVTVSS | low polyreactivity
38 | QVQLVESGGGLVQAGGSLRLSCAASGRTSWVNAMGWYRQAPGKERELVAAIVSGGTTKYADSVKGRFTISRDNAKNTVYLQMNSMKPEDTAVYYCAAALGLGGQKTRRYEYWGQGTQVTVSS | high polyreactivity
39 | QVQLVESGGGLVQAGGSLRLSCAAYGRIFGPYASGWYIQAPGKERELVAAITLSGGGTYADSVKGRFTISRDNAKNTVYLQMNSLKPEDTAVYYCAADSYRLLNSDTGEFEYNYWGQGSQVTVSS | low polyreactivity
40 | QVQLVESGGGLVQAGGSLRLSCAASGSTFPYNAMGWYRQAPGKERELVAAITSSGRTNYADSVKGRFTISRDNANNTVYLQMNSLKPEDTAVYYCAAARWYAHRVDYWGQGTQVTVSS | low polyreactivity
41 | QVQLVESGGGLVQAGGSLRLSCAASGSTLQVNAMGWYRQAPGKETELVATISFSGGSTYYADSVKGRFTISRDNAMNTVYLQMNSLKPEETAAYYCNADSFVSWYNQFWYQATYDYWGQGTKVTVSS | low polyreactivity
42 | QVQLVESGGVLVQAGGSLRLSCAASGNIFVPYAMGWYRQAPGKERDLVAAISSRGGRTYYADSVKGRFTISRDNAKNTVYLQMNSLKPEDTAVFYCNKVAKSSVLTLDYWGQGTQVTVSS | high polyreactivity
43 | QVQLVESGGGLVQAGGSLRLSCAASGSTFVRNVMGWYRQAPGKERELVAAITRSGDTTYYADSVKGRFTISRDNAKNTVYLQMNSLKPEDTAVYYCAKRTFVRRGSIYPIDDYWGQGTQVTVSS | low polyreactivity
